Assay results published in patent US20050158311A1.
Each block holds one molecule with its values, some of them ahead of it.

How the values were obtained:
Assay in all cases: cell-based or functional assay
[1] = molecular target: endogenous Ryk of mouse (brain cell lysate; DRG explants) (mouse) (UniProt Q01887)
[2] = molecular target: over-expressed Ryk (from a transfected DNA construct expressing Ryk)
[3] = molecular target: Dishevelled (overexpressed in 293T cells)
[4] = molecular target: endogenous Ryk of 293T cells (human) (UniProt P34925)
Sequence of UniProt P34925 (P34925 26-607 limits assumed): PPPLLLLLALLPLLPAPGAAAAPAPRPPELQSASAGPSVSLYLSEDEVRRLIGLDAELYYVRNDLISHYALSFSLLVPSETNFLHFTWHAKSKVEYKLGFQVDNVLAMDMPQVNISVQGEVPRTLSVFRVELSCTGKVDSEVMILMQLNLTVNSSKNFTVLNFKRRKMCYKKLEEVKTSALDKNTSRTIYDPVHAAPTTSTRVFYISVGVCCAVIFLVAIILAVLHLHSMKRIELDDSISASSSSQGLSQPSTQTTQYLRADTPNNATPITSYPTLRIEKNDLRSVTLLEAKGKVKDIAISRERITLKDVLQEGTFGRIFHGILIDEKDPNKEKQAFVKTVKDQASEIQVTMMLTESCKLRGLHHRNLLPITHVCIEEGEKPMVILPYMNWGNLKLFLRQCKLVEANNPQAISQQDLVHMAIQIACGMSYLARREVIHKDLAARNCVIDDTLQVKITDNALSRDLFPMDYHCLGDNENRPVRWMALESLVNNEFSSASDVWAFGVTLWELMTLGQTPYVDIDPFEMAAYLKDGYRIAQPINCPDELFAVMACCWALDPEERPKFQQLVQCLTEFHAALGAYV

Sequence of UniProt Q01887 (Q01887 35-594 limits assumed): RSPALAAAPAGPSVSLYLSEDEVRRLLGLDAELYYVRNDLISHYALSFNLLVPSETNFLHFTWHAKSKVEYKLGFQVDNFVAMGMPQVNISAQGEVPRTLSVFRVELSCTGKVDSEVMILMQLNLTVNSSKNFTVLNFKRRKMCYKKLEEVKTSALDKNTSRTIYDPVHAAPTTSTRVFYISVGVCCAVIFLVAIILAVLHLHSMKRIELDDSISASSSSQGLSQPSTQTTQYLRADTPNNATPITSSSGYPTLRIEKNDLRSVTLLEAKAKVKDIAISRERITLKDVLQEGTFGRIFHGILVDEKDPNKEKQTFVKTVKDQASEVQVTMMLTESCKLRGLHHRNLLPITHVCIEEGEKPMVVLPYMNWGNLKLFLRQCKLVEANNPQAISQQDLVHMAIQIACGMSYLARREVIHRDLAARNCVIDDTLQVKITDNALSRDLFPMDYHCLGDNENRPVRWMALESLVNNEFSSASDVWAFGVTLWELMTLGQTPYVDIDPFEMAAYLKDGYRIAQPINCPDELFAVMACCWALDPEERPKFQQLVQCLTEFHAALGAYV

- average length of neurites of DRG explants, Ryk siRNA mice against wild type [1]: 2 fold
- activation of the TCF-luciferase reporter [2]: 5 fold
Molecule: Wnt3a (Wnt3a conditioned medium) (ligand)

- activation of the TCF-luciferase reporter [3]: 25 fold
Molecule: over-expressed Ryk (from a transfected DNA construct expressing Ryk) (receptor)

- activation of the TCF-luciferase reporter [4]: 25 fold
- fold decrease in TCF-driven transcription in Ryk siRNA-containing 293T cells [4]: 12 fold
B1: Wnt-1 (cotransfected in the TCF-luciferase reporter assay) (ligand, UniProt P04628 28-370, looked up, species assumed)
Proto-oncogene Wnt-1: ANSSGRWWGIVNVASSTNLLTDSKSLQLVLEPSLQLLSRKQRRLIRQNPGILHSVSGGLQSAVRECKWQFRNRRWNCPTAPGPHLFGKIVNRGCRETAFIFAITSAGVTHSVARSCSEGSIESCTCDYRRRGPGGPDWHWGGCSDNIDFGRLFGREFVDSGEKGRDLRFLMNLHNNEAGRTTVFSEMRQECKCHGMSGSCTVRTCWMRLPTLRAVGDVLRDRFDGASRVLYGNRGSNRASRAELLRLEPEDPAHKPPSPHDLVYFEKSPNFCTYSGRLGTAGTAGRACNSSSPALDGCELLCCGRGHRTRTQRVTERCNCTFHWCCHVSCRNCTHTRVLHECL
